T1: C4.4a on A549 cells transfected with the sequence for the complete C4.4a receptor (Homo sapiens)
T1 chain: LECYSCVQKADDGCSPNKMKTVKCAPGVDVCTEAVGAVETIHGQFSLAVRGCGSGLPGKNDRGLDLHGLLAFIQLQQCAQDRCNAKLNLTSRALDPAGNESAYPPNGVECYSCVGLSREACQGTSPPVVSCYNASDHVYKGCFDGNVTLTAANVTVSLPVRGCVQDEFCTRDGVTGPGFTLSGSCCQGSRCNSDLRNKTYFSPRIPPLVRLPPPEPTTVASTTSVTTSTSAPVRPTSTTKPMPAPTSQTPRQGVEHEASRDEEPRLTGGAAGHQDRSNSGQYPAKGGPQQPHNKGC

B1: ADC of Example 55 (antibody, V domains shown)
VH: EVQLLESGGGLVQPGGSLRLSCAASGFTFSDYQMTWIRQTPGKGLEWVSGISWNGGSTHYADSVKGRFTISRDNSKNTLYLQMNSLRAEDTAVYYCAKGDYLVYSSYYFKSWGQGTLVTVSS
VL: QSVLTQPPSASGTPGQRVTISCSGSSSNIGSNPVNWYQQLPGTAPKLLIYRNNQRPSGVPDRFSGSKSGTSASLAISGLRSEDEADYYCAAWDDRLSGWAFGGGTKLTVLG
modifications: toxophore-linker on Cys (via S); toxophore-linker on Cys (via S)
B2: ADC of Example 49 (antibody, V domains shown)
VH: EVQLLESGGGLVQPGGSLRLSCAASGFTFSSAWMSWVRQAPGKGLEWVSYISSSGSTIYYADSVKGRFTISRDNSKNTLYLQMNSLRAEDTAVYYCAREGLWAFDYWGQGTLVTVSS
VL: QSVLTQPPSVSGAPGQRVTISCTGSSSNIGAGYVVHWYQQLPGTAPKLLIYDNNKRPSGVPDRFSGSKSGTSASLAISGLRSEDEADYYCAAYDDSLSGPVFGGGTKLTVLG
modifications: toxophore-linker on Cys (via S); toxophore-linker on Cys (via S)
B3: ADC of Example 52 (antibody, V domains shown)
VH: EVQLLESGGGLVQPGGSLRLSCAASGFTFSSAWMSWVRQAPGKGLEWVSYISSSGSTIYYADSVKGRFTISRDNSKNTLYLQMNSLRAEDTAVYYCAREGLWAFDYWGQGTLVTVSS
VL: QSVLTQPPSVSGAPGQRVTISCTGSSSNIGAGYVVHWYQQLPGTAPKLLIYDNNKRPSGVPDRFSGSKSGTSASLAISGLRSEDEADYYCAAYDDSLSGPVFGGGTKLTVLG
modifications: toxophore-linker on Cys (via S); toxophore-linker on Cys (via S)
B4: ADC of Example 53 (antibody, V domains shown)
VH: EVQLLESGGGLVQPGGSLRLSCAASGFTFSSAWMSWVRQAPGKGLEWVSYISSSGSTIYYADSVKGRFTISRDNSKNTLYLQMNSLRAEDTAVYYCAREGLWAFDYWGQGTLVTVSS
VL: QSVLTQPPSVSGAPGQRVTISCTGSSSNIGAGYVVHWYQQLPGTAPKLLIYDNNKRPSGVPDRFSGSKSGTSASLAISGLRSEDEADYYCAAYDDSLSGPVFGGGTKLTVLG
modifications: toxophore-linker on Cys (via S); toxophore-linker on Cys (via S)

Target: T1, C4.4a on A549 cells transfected with …
Assay: cell-based or functional assay

Binder | IC50 [nM] A549: C4.4a (cell viability) [nM]
B1 | 0.053
B2 | 0.076
B3 | 0.04
B4 | 0.046

— patent US8992932B2 (Seattle Genetics, Inc., dated 2015)
